# Measurements published in patent US8361965B2, “Recombinant chimeric protein of neutrophil inhibitory factor and hirugen, and pharmaceutical composition thereof” (Lunan Pharmaceutical Group Corporation, priority 2008, dated 2013).
# Several values for one entry are separate records, joined by “and”; a condition that tells them apart may be missing. Identical values can stand only once. Entries after “also recorded” stand apart in the source; their conditions may differ. Like-named read-outs stand apart in the source and are kept apart here.
# B1: TNHH: recombinant chimeric protein of neutrophil inhibitory factor and hirugen, Met-NIF-GGGGG-FPRPGSGG-Hirugen (SEQ ID NO: 3), expressed in E. coli (protein)
# chain: MNEHNLRCPQNGTEMPGFNDSIRLQFLAMHNGYRSKLALGHISITEESESDDDDDFGFLPDFAPRASKMRYLEYDCEAEKSAYMSARNCSDSSSPPEGYDENKYIFENSNNISEAALKAMISWAKEAFNLNKTKEGEGVLYRSNHDISNFANLAWDAREKFGCAVVNCPLGEIDDETNHDGETYATTIHVVCHYPKINKTEGQPIYKVGTPCDDCSEYTKKADNTTSADPVCIPDDGVCFIGSKADYDSKEFYRFRELGGGGGFPRPGSGGNGDFEEIPEEYL
# modifications: N-terminal Met
# Key:
# blood coagulation system = test: effects on blood coagulation system of New Zealand rabbits in vivo (APTT, PT, TT); set-up: species or system New Zealand rabbit; PT: unit not given beside the values; APTT / TT: unit not given here
# Protocol: Medicaments were administrated via intravenous injection from marginal ear vein, and 1.8 ml blood was harvested from marginal ear veins at the time of before administration (0 min), and 10 min, 30 min, 60 min, 120 min and 240 min after administration, respectively (the time for injecting is 2 min). 3.2% sodium citrate (9:1) was added for anticoagulation and then mixed and centrifuged at 3000 rpm/min for 3 min. The plasma was send to Department of Clinical Laboratory, Southwest Hospital for determining blood coagulation indexes (APTT, TT and PT) with a full automatic coagulation analyzer and the difference before and after administration was obtained by comparison.
# [1] = system: focal cerebral ischemia-reperfusion injury in rats; assay type: in vivo, Sprague-Dawley (SD) rats
# [2] = system: cerebral ischemia in rats subjected to middle cerebral artery occlusion; assay type: in vivo, Wistar rats; details: for behavioral score: full score 11
# [3] = TNHH 3.375 mg/kg i.v., 0 min (before administration)
# [4] = TNHH 6.675 mg/kg i.v., 0 min (before administration)
# [5] = dose in great excess of the effective dose
# [6] = M-1, TNHH 2.25 mg/kg i.v. (middle dose)
# [7] = M-1, TNHH 6.75 mg/kg i.v. (high dose)
# [8] = M-2, TNHH 2.25 mg/kg i.v. (middle dose)
# [9] = M-2, TNHH 6.75 mg/kg i.v. (high dose)
molecule,measurement,setting,value
B1,APTT,blood coagulation system; [3],36.45 ± 6.60
same,PT,blood coagulation system; [3],6.78 ± 0.28
same,TT,blood coagulation system; [3],15.57 ± 1.09
same,APTT,"blood coagulation system; TNHH 3.375 mg/kg i.v., 10 min",37.38 ± 6.35
same,PT,"blood coagulation system; TNHH 3.375 mg/kg i.v., 10 min",6.90 ± 0.21
same,TT,"blood coagulation system; TNHH 3.375 mg/kg i.v., 10 min",23.23 ± 2.47
same,APTT,"blood coagulation system; TNHH 3.375 mg/kg i.v., 30 min",31.97 ± 2.11
same,PT,"blood coagulation system; TNHH 3.375 mg/kg i.v., 30 min",6.85 ± 0.23
same,TT,"blood coagulation system; TNHH 3.375 mg/kg i.v., 30 min",16.13 ± 1.31
same,APTT,"blood coagulation system; TNHH 3.375 mg/kg i.v., 60 min",31.93 ± 2.39
same,PT,"blood coagulation system; TNHH 3.375 mg/kg i.v., 60 min",6.78 ± 0.22
same,TT,"blood coagulation system; TNHH 3.375 mg/kg i.v., 60 min",14.75 ± 1.44
same,APTT,"blood coagulation system; TNHH 3.375 mg/kg i.v., 120 min",30.52 ± 6.86
same,PT,"blood coagulation system; TNHH 3.375 mg/kg i.v., 120 min",6.87 ± 0.32
same,TT,"blood coagulation system; TNHH 3.375 mg/kg i.v., 120 min",14.02 ± 0.79
same,APTT,"blood coagulation system; TNHH 3.375 mg/kg i.v., 240 min",35.65 ± 9.36
same,PT,"blood coagulation system; TNHH 3.375 mg/kg i.v., 240 min",7.02 ± 0.24
same,TT,"blood coagulation system; TNHH 3.375 mg/kg i.v., 240 min",14.65 ± 1.14
same,APTT,blood coagulation system; [4],44.25 ± 5.39
same,PT,blood coagulation system; [4],6.88 ± 0.17
same,TT,blood coagulation system; [4],15.97 ± 1.42
same,APTT,"blood coagulation system; TNHH 6.675 mg/kg i.v., 10 min",39.87 ± 4.98
same,PT,"blood coagulation system; TNHH 6.675 mg/kg i.v., 10 min",7.17 ± 0.36
same,TT,"blood coagulation system; TNHH 6.675 mg/kg i.v., 10 min",33.57 ± 4.47
same,APTT,"blood coagulation system; TNHH 6.675 mg/kg i.v., 30 min",37.98 ± 4.77
same,PT,"blood coagulation system; TNHH 6.675 mg/kg i.v., 30 min",7.12 ± 0.47
same,TT,"blood coagulation system; TNHH 6.675 mg/kg i.v., 30 min",21.63 ± 1.71
same,APTT,"blood coagulation system; TNHH 6.675 mg/kg i.v., 60 min",36.17 ± 6.76
same,PT,"blood coagulation system; TNHH 6.675 mg/kg i.v., 60 min",7.17 ± 0.40
same,TT,"blood coagulation system; TNHH 6.675 mg/kg i.v., 60 min",15.55 ± 0.95
same,APTT,"blood coagulation system; TNHH 6.675 mg/kg i.v., 120 min",38.95 ± 8.85
same,PT,"blood coagulation system; TNHH 6.675 mg/kg i.v., 120 min",7.62 ± 0.64
same,TT,"blood coagulation system; TNHH 6.675 mg/kg i.v., 120 min",15.00 ± 1.51
same,APTT,"blood coagulation system; TNHH 6.675 mg/kg i.v., 240 min",38.03 ± 9.11
same,PT,"blood coagulation system; TNHH 6.675 mg/kg i.v., 240 min",7.97 ± 0.99
same,TT,"blood coagulation system; TNHH 6.675 mg/kg i.v., 240 min",13.33 ± 0.73
same,extension time of PT,"blood coagulation system; TNHH 6.675 mg/kg i.v., vs 0 min",less than 3 seconds
same,effects on the endogenous blood coagulation pathway,blood coagulation system; [5],no effects
same,effects on the exogenous blood coagulation pathway and fibrinolytic system,blood coagulation system; [5],some effects
same,"Cerebral infarction volume (%), based on the total volume of the brain","[1]; M-1 (occlusion 1 h, reperfusion 48 h), TNHH 0.75 mg/kg i.v. (low dose)",19.93±12.40%
same,nervous symptom score,"[1]; M-1 (occlusion 1 h, reperfusion 48 h), TNHH 0.75 mg/kg i.v., 2 h",1.46 ± 0.58
same,"Decrease in percentage (%), compared with corresponding model group","[1]; M-1, TNHH 0.75 mg/kg i.v. (low dose)",10.54%
same,nervous symptom score,"[1]; M-1, TNHH 0.75 mg/kg i.v., 6 h",1.42 ± 0.60
same,nervous symptom score,"[1]; M-1, TNHH 0.75 mg/kg i.v., 12 h",1.42 ± 0.60
same,nervous symptom score,"[1]; M-1, TNHH 0.75 mg/kg i.v., 24 h",1.40 ± 0.43
same,nervous symptom score,"[1]; M-1, TNHH 0.75 mg/kg i.v., 48 h",1.36 ± 0.62
same,"Cerebral infarction volume (%), based on the total volume of the brain",[1]; [6],19.41±11.74%
same,"Decrease in percentage (%), compared with corresponding model group",[1]; [6],12.88%
same,nervous symptom score,"[1]; M-1, TNHH 2.25 mg/kg i.v., 2 h",1.47 ± 0.92
same,nervous symptom score,"[1]; M-1, TNHH 2.25 mg/kg i.v., 6 h",1.47 ± 0.92
same,nervous symptom score,"[1]; M-1, TNHH 2.25 mg/kg i.v., 12 h",1.37 ± 0.92
same,nervous symptom score,"[1]; M-1, TNHH 2.25 mg/kg i.v., 24 h",1.38 ± 0.41
same,nervous symptom score,"[1]; M-1, TNHH 2.25 mg/kg i.v., 48 h",1.30 ± 0.76
same,"Cerebral infarction volume (%), based on the total volume of the brain",[1]; [7],12.89±8.94%
same,"Decrease in percentage (%), compared with corresponding model group",[1]; [7],42.14% and 42.15** %
same,nervous symptom score,"[1]; M-1, TNHH 6.75 mg/kg i.v., 2 h",1.50 ± 0.58
same,nervous symptom score,"[1]; M-1, TNHH 6.75 mg/kg i.v., 6 h",1.50 ± 0.68
same,nervous symptom score,"[1]; M-1, TNHH 6.75 mg/kg i.v., 12 h",1.39 ± 0.65
same,nervous symptom score,"[1]; M-1, TNHH 6.75 mg/kg i.v., 24 h",1.20 ± 0.36
same,nervous symptom score,"[1]; M-1, TNHH 6.75 mg/kg i.v., 48 h",1.00 ± 0.42
same,"Cerebral infarction volume (%), based on the total volume of the brain","[1]; M-2 (occlusion 2 h, reperfusion 48 h), TNHH 0.75 mg/kg i.v. (low dose)",27.52±17.63% and 27.52 ± 7.63%
same,nervous symptom score,"[1]; M-2 (occlusion 2 h, reperfusion 48 h), TNHH 0.75 mg/kg i.v., 2 h",1.94 ± 0.56
same,"Decrease in percentage (%), compared with corresponding model group","[1]; M-2, TNHH 0.75 mg/kg i.v. (low dose)",3.63%
same,nervous symptom score,"[1]; M-2, TNHH 0.75 mg/kg i.v., 6 h",1.94 ± 0.56
same,nervous symptom score,"[1]; M-2, TNHH 0.75 mg/kg i.v., 12 h",1.94 ± 0.73
same,nervous symptom score,"[1]; M-2, TNHH 0.75 mg/kg i.v., 24 h",1.88 ± 0.64
same,nervous symptom score,"[1]; M-2, TNHH 0.75 mg/kg i.v., 48 h",1.86 ± 0.77
same,"Cerebral infarction volume (%), based on the total volume of the brain",[1]; [8],26.07±8.06%
same,"Decrease in percentage (%), compared with corresponding model group",[1]; [8],7.42%
same,nervous symptom score,"[1]; M-2, TNHH 2.25 mg/kg i.v., 2 h",1.81 ± 0.92
same,nervous symptom score,"[1]; M-2, TNHH 2.25 mg/kg i.v., 6 h",1.80 ± 0.92
same,nervous symptom score,"[1]; M-2, TNHH 2.25 mg/kg i.v., 12 h",1.79 ± 0.92
same,nervous symptom score,"[1]; M-2, TNHH 2.25 mg/kg i.v., 24 h",1.68 ± 0.41
same,nervous symptom score,"[1]; M-2, TNHH 2.25 mg/kg i.v., 48 h",1.67 ± 0.76
same,"Cerebral infarction volume (%), based on the total volume of the brain",[1]; [9],19.72±8.90% and 19.72 ± 5.90%
same,"Decrease in percentage (%), compared with corresponding model group",[1]; [9],29.97%
same,nervous symptom score,"[1]; M-2, TNHH 6.75 mg/kg i.v., 2 h",1.75 ± 0.52
same,nervous symptom score,"[1]; M-2, TNHH 6.75 mg/kg i.v., 6 h",1.75 ± 0.27
same,nervous symptom score,"[1]; M-2, TNHH 6.75 mg/kg i.v., 12 h",1.50 ± 0.45
same,nervous symptom score,"[1]; M-2, TNHH 6.75 mg/kg i.v., 24 h",1.37 ± 0.52
same,nervous symptom score,"[1]; M-2, TNHH 6.75 mg/kg i.v., 48 h",1.22 ± 0.38
same,behavioral score,"[2]; 2 mg/kg bid caudal vein, 4 h",6.5 ± 1.0
same,behavioral score,"[2]; 2 mg/kg bid caudal vein, 8 h",6.2 ± 1.2
same,behavioral score,"[2]; 2 mg/kg bid caudal vein, 24 h",5.8 ± 1.2
same,behavioral score,"[2]; 2 mg/kg bid caudal vein, 48 h",5.3 ± 0.5
same,behavioral score,"[2]; 2 mg/kg bid caudal vein, 72 h",5.0 ± 0.6
same,pathological section of brain (cerebral cortex nerve cells),"[2]; 2 mg/kg bid caudal vein, HE, compared with model group","least pathological changes; also recorded: more regular structural arrangements, a portion of deeply stained nucleus, and some cytoplasmic shrinkage or disappearance"
same,Cerebral infarction volume (%),[2]; 72 h,23.2 ± 5.4 %
